What was measured:
[1] = target: T1, CD16A (FcγRIIIA) on primary human NK cells (human, UniProt P08637 17-254); assay: flow cytometry, primary human NK cells, 37 C, buffer
T1 construct: whole, on cells

[2] = target: T2, human CD16A-158F ECD fused to monomeric Fc (human, UniProt P08637 17-208, biotinylated on the Avi-tag in the SPR form); assay: ELISA, antigen coated at 1.5 µg/mL, His-tagged scFv titrated
T2 construct: extracellular domain; not shown: monomeric Fc (Ying et al. 2012), silent; Avi-tag in the SPR form
T2 sequence (P08637 17-208): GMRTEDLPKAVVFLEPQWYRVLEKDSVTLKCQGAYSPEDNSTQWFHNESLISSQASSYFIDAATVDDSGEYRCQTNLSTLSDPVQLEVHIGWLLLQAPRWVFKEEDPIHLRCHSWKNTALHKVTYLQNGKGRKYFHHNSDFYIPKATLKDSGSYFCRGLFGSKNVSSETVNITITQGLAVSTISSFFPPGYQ

[3] = target: T3, human CD16A-158V ECD fused to monomeric Fc (human, UniProt P08637 17-208); assay: as above
T3 construct: extracellular domain; also called CD16A-158V ECD-monomeric Fc-fusion antigen; CD16A-158V ECD-Fc fusion antigen; not shown: monomeric Fc (Ying et al. 2012), silent; Avi-tag in the SPR form
T3 sequence (P08637 17-208 F176V): as the sequence (P08637 17-208) above, with F160V counted along it

[4] = target: T4, Cynomolgus CD16A ECD fused to monomeric Fc (cynomolgus, UniProt Q8SPW2 17-208, biotinylated on the Avi-tag in the SPR form); assay: as above
T4 construct: also called biotinylated mono-Fc(silent)-Avi-tagged cynomolgus CD16; not shown: monomeric Fc fusion partner (Avi-tag in the SPR form)
T4 sequence (Q8SPW2 17-208): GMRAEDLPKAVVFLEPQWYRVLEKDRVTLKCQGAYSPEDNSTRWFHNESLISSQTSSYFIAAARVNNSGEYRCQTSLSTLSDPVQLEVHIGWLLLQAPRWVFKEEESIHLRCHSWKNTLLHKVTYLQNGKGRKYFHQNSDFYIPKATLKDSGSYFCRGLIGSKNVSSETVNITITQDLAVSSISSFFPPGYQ

[5] = target: T3, human CD16A-158V ECD fused to monomeric …; assay: ELISA, CD16 antigen coated at 0.5 µg/mL (10 nM), with 8-10 nM 3G8 IgG as competitor
[6] = target: T1, CD16A (FcγRIIIA) on primary human NK …; assay: flow cytometry, primary human NK cells, 37 C, with 10 mg/mL polyclonal human IgG as competitor
[7] = target: T3, human CD16A-158V ECD fused to monomeric …; assay: SPR, Biacore T200, receptor captured, 1:1 model
[8] = target: T3, human CD16A-158V ECD fused to monomeric …; assay: ELISA, CD16 antigen coated at 0.5 µg/mL (10 nM), without competition
[9] = target: T1, CD16A (FcγRIIIA) on primary human NK …; assay: flow cytometry, DyLight650-labelled antibody on fresh human NK cells (FIG. 40A)
Protocol: Fresh prepared human NK cells were pre-incubated for 1-hours at 37 C with and without 10 mg/mL of SCIG (Hizentra), then stained with DyLight650 labeled anti-AFM26/CD16a at indicted concentrations. […] NK (FIG. 40D) and MM.1S cells (FIG. 40C) were preincubated separately in 50% human autologous serum for 2 hours prior to assay setup. NK cells were co-cultured with MM.1S tumor cell line at an approximate E:T ration of 5, and exposed to 10-fold serial diluted test articles from 0.1-100 nM for approximately 20 hours at 37 C with 5% CO₂. Antibody staining with CD138 and CD56 followed by FACS were used to monitor cytotoxicity of MM.1S target cells and NK survival. Data were analyzed with the software programs FlowJo and GraphPad Prism 6.

[10] = target: T5, biotinylated, recombinant human CD16A(48R-158V) fused to human IgG1 Fc portion (human, UniProt P08637 17-208, biotinylated (site not stated)); assay: ELISA, coated construct, soluble CD16A(48R-158V)-Fc
T5 construct: also called CD16A soluble antigen; recombinant human CD16A soluble antigen; not shown: human IgG1 Fc portion
T5 sequence (P08637 17-208 L66R/F176V limits assumed): as the sequence (P08637 17-208) above, with L50R, F160V counted along it

T1 sequence (P08637 17-254): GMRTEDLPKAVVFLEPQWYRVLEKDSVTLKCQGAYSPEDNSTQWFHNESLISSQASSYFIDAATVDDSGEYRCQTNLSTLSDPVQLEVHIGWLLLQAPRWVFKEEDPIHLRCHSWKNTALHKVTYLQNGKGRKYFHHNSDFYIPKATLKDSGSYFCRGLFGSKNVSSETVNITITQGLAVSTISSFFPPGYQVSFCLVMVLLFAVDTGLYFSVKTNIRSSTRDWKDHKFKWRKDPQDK

B1: scFv 3G8 (scFv containing the variable domains of the CD16 pan-specific antibody 3G8) (scFv)
chain 1: QVTLKESGPGILQPSQTLSLTCSFSGFSLRTSGMGVGWIRQPSGKGLEWLAHIWWDDDKRYNPALKSRLTISKDTSSNQVFLKIASVDTADTATYYCAQINPAWFAYWGQGTLVTVS
chain 2: DIVLTQSPASLAVSLGQRATISCKASQSVDFDGDSFMNWYQQKPGQPPKLLIYTTSNLESGIPARFSASGSGTDFTLNIHPVEEEDTATYYCQQSNEDPYTFGGGTKLELK
Kd [1]: 3.8 nM
EC50 [2]: 0.58 nM
EC50 [3]: 0.33 nM
EC50 [4]: 0.87 nM
EC50 [5]: 19.7 nM
Kd [6]: 64.6 nM
Kd [7]: 8.6 nM
EC50 [8]: 0.9 nM

B2: CD16A/BCMA antibody I (bispecific antibody, human IgG1, kappa)
heavy: EVQLLESGGGLVQPGGSLRLSCAASGFTFSNYDMAWVRQAPGKGLEWVSSISTRGDITSYRDSVKGRFTISRDNSKNTLYLQMNSLRAEDTAVYYCARQDYYTDYMGFAYWGQGTLVTVSSASTKGPSVFPLAPSSKSTSGGTAALGCLVKDYFPEPVTVSWNSGALTSGVHTFPAVLQSSGLYSLSSVVTVPSSSLGTQTYICNVNHKPSNTKVDKKVEPKSCDKTHTCPPCPAPEFEGGPSVFLFPPKPKDTLMISRTPEVTCVVVAVSHEDPEVKFNWYVDGVEVHNAKTKPREEQYNSTYRVVSVLTVLHQDWLNGKEYKCKVSNKALPAPIEKTISKAKGQPREPQVYTLPPSREEMTKNQVSLTCLVKGFYPSDIAVEWESNGQPENNYKTTPPVLDSDGSFFLYSKLTVDKSRWQQGNVFSCSVMHEALHNHYTQKSLSLSPGGGGGSGGGGSGGGGSGGGGSGGGGSGGGGSSYVLTQPSSVSVAPGQTATISCGGHNIGSKNVHWYQQRPGQSPVLVIYQDNKRPSGIPERFSGSNSGNTATLTISGTQAMDEADYYCQVWDNYSVLFGGGTKLTVLGGSGGSGGSGGSGGSGGSGGSQVQLVQSGAEVKKPGESLKVSCKASGYTFTSYYMHWVRQAPGQGLEWMGAIEPMYGSTSYAQKFQGRVTMTRDTSTSTVYMELSSLRSEDTAVYYCARGSAYYYDFADYWGQGTLVTVSS
light: AIQMTQSPSSLSASVGDRVTITCRASEDIYNGLAWYQQKPGKAPKLLIYGASSLQDGVPSRFSGSGSGTEFTLTISSLQPEDEATYYCAGPHKYPLTFGGGTKVEIKRTVAAPSVFIFPPSDEQLKSGTASVVCLLNNFYPREAKVQWKVDNALQSGNSQESVTEQDSKDSTYSLSSTLTLSKADYEKHKVYACEVTHQGLSSPVTKSFNRGEC
notes: also called BCMA/CD16A antibody I; anti-BCMA/CD16a
binding result [9]: binds

B3: scDb-Tribody_01 (other)
VL: SYVLTQPSSVSVAPGQTATISCGGHNIGSKNVHWYQQRPGQSPVLVIYQDNKRPSGIPERFSGSNSGNTATLTISGTQAMDEADYYCQVWDNYSVLFGGGTKLTVL
VH: QVQLVQSGAEVKKPGESLKVSCKASGYTFTSYYMHWVRQAPGQGLEWMGIINPSGGSTSYAQKFQGRVTMTRDTSTSTVYMELSSLRSEDTAVYYCARGSAYYYDFADYWGQGTLVTVSS
notes: Trispecific; LSIV21 scDb VL-VL-VH-VH; connector1 NO:20, no hinge, no Fc, connector2 NO:20
EC50 [10]: 0.65 nM
